Measurements as given in IntAct's records for PubMed 27309808.

B1: Sperm-egg fusion protein Juno (Homo sapiens), A6ND01-1 (parent)
chain: MACWWPLLLELWTVMPTWAGDELLNICMNAKHHKRVPSPEDKLYEECIPWKDNACCTLTTSWEAHLDVSPLYNFSLFHCGLLMPGCRKHFIQAICFYECSPNLGPWIQPVGSLGWEVAPSGQGERVVNVPLCQEDCEEWWEDCRMSYTCKSNWRGGWDWSQGKNRCPKGAQCLPFSHYFPTPADLCEKTWSNSFKASPERRNSGRCLQKWFEPAQGNPNVAVARLFASSAPSWELSYTIMVCSLFLPFLS
B2: Izumo sperm-egg fusion protein 1 (Homo sapiens), Q8IYV9-1 (parent)
chain: MGPHFTLLCAALAGCLLPAEGCVICDPSVVLALKSLEKDYLPGHLDAKHHKAMMERVENAVKDFQELSLNEDAYMGVVDEATLQKGSWSLLKDLKRITDSDVKGDLFVKELFWMLHLQKETFATYVARFQKEAYCPNKCGVMLQTLIWCKNCKKEVHACRKSYDCGERNVEVPQMEDMILDCELNWHQASEGLTDYSFYRVWGNNTETLVSKGKEATLTKPMVGPEDAGSYRCELGSVNSSPATIINFHVTVLPKMIKEEKPSPNIVTPGEATTESSISLQPLQPEKMLASRLLGLLICGSLALITGLTFAIFRRRKVIDFIKSSLFGLGSGAAEQTQVPKEKATDSRQQ

Variants of: B1
Conditions: with IZUMO1, Q8IYV9-1

| effect of a mutation on the interaction | Variant |
| --- | --- |
| decreasing interaction strength | M83A |
| decreasing interaction strength | L81A |
| decreasing interaction strength | W62A |

Variants of: B2
Conditions: with IZUMO1R

| effect of a mutation on the interaction | Variant |
| --- | --- |
| decreasing interaction strength | W148A |
